Measurements as given in article PMC3374083 (Cell Death and Differentiation, 2012).

B1: monomeric human Fas receptor extracellular domain (domain or fragment)
chain: QVTDINSKGLELRKTVTTVETQNLEGLHHDGQFCHKPCPPGERKARDCTVNGDEPDCVPCQEGKEYTDKAHFSSKCRRCRLCDEGHGLEVEINCTRTQNTKCRCKPNFFCNSTVCEHCDPCTKCEHGIIKECTLTSNTKCKEEGSRSN
B2: human Fas ligand, recombinant (ligand)
chain: QIGHPSPPPEKKELRKVAHLTGKSNSRSMPLEWEDTYGIVLLSGVKYKKGGLVINETGLYFVYSKVYFRGQSCNNLPLSHKVYMRNSKYPQDLVMMEGKMMSYCTTGQMWARSSYLGAVFNLTSADHLYVNVSELSLVNFEESQTFFGLYKL

Legend:
[1] = biological target: B2; test: SPR
[2] = biological target: B1; test: cell-based or functional assay
[3] = biological target: B1; test: cell-based or functional assay; remark: listed apart in the source

Kd [1] [nM] | DNA fragmentation (oligonucleosomes in the cytosol) in Jurkat cells, 8 h, EC50 [2] [nM] | Binder | Jurkat cell killing (cell-viability assay), EC50 [3] [nM]
14 |  | B1 | 
 | 2.8 | B2 | 7.1
